Reference: publication PMC4010534

Molecular target: Cdc42 biosensor with the effector-binding mutations T35S and Y40C in Cdc42 (UniProt Q13153)

Substance: guanine nucleotide dissociation inhibitor (from UniProt P52565 1-204) (natural protein)
- difference in FRET/mCer ratio of the biosensor by fluorometry in HEK293 cells, GDI-bound (with excess GDI) against GDI-free: 17%
